Data on 45 substances can be found in the supplement of paper PMC11502859.

The test system of the data set is HEK293T. Put plainly: median enrichment of reporter reads in eGFP-reduced (low/intermediate) vs eGFP-high sorted cells (eGFP-extension fusion abundance) (ratio); higher = stronger loss of eGFP-fusion protein abundance (more destabilising extension).
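Also: lentiviral eGFP-IRES-mCherry reporter pool sorted by FACS 96 h post-transduction, gated on mCherry-high cells, Illumina read counts normalized per million, median across four biological replicates.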

As to SVRLDWGGWHCVGGQLSI [ACTL10], the median enrichment worked out at 13.7.
On to “GSRGRGGESPPRPPLPSPPGSRGSGLGRLPIPLLQAALIPHRN [FBXO46]”, for which the median enrichment stood at 5.21.
The same measure for “APLGLEFATGRILQRQVVPGPLLHPFSRRPCQRLHPVVNLVWRQRLRGWTSIVGQGLTLQGFCSWLWTPENPLLPSPNTRFLT [FAM110A]”: 5.18.
Next, “WGSGFVSAAAYPCPMCPPLPVLRASGMVQALRKVRVAVWEPLCLAPGYPGPGNLRAGERWGGRHAEVLLVTGLPSLTCTYLHP [SLC36A1]”: 4.72.
In the case of EEE [Glu03], the median enrichment was 9.28.
In the case of YPSVLHTARGPRMPRPPLAPAGREPDHLPC [CHI3L1], the median enrichment amounted to 2.05.
As to WLYLRFEAGKPDR [UGT2B10], the median enrichment came out at 6.76.
In the case of YSYSVMTLVIFCVL [HTR1D], the median enrichment is 15.3.
The same measure for “SGWLSTCSSWMASGPKLQSLNDQEQHEGLGTYPCKEFLDG [SQOR]”: 1.57; for SLTVFHKEDV [ATP2A2]: 0.983.
The same measure for CESVHQTKCGKNTKKT [GYPA]: 0.413; for WELLFLGEGEEGKGPGSRGTRG [EPHB1]: 5.5; for WPYWLTPENGLLLDGHGRINFSKMFWVGVE [ACTL8]: 1.37.
Regarding LGP [COLQ], the median enrichment stood at 0.326.
For the substance RNKKFWVLSS [RGCC], the median enrichment was found to be 1.68.
The same measure for “RSQLCSGQACSLRTLTTLDLELGTCGHSSSPGCIP [CIITA]”: 42.6; for LFQPGPKPTGVCGRARTQEV [DNMT3B]: 3.86.
The same measure for ELSF [ADHFE1]: 0.232; for KRYPLNIFVEVSYLYQRLGLPI [C7orf25]: 15.9.
On to QTLCALCVRPVPAS [USP10], for which the median enrichment was 7.74.
Turning to “RRAGGGWWPRRQHTTRLHTCMLSPRGNGLYIAHFTLFRRHFIPALVLLEGLSRQSSSCSASVCDSPPSTPMALSLGDSSSPRK [PRKAB1]”, the median enrichment was 5.36.
As to LINARSHPMIILNYSHYF [LRRIQ3], the median enrichment was 6.8.
The same measure for “RGTLRSPKTSSCWGPHEGTSTLWGVARKRQALQLGDPIWKRDSDLPTSSSSFSTKAPVDSREVVKIFFSPIFLPASGDTAAVT [PGPEP1]”: 2.83; for RPSTVPGP [HYKK]: 0.522.
Next, WVEKKKKIKKQNKTHAPKK [NPIPB6]: 1.29; KKKKKKRRKKLL [CCNT1]: 0.26.
Turning to CGRPELSRPPPALLGAGVLDPWHLPGPLT [LLGL1], the median enrichment came out at 2.46.
As to LLLPRSWATP [CEP72], the median enrichment was 4.2.
On to YWELLWQVPPE [C1orf115], for which the median enrichment was 3.92.
Next, YLKKTVLSAMTLYIKGVLFC [PLAAT3]: 13.8; LVCPLATDTVGNQTLSWSLLLAHSTSKWI [HIBADH]: 12.8.
Next, RGGMGFTDMVLIH [GABRG2]: 7.24.
Next, LVVDVWGI [XRCC5]: 4.14; LIGCMEK [BTN3A1]: 11.1; LSGP [LCE1C]: 0.649.
Regarding “LYRSRWFFTALDIIPFYHPFITPKVCLIASEVYKVV [PLPPR5]”, the median enrichment was 7.74.
Next, “LMSMSEGKENFGHQNPAPSELKELIYFMKLILLCVCSWC [GALNT15]”: 12.1.
Next, LLTVFHKEDV [ATP2A2]: 10.9; KSFPLTLLQIGL [PTHLH]: 19.8; QPGT [ZNF445]: 1.04.
The same measure for CCCCCC [Cys06]: 12.4.
In the case of KFFRMQPGGTWI [DCAF4L2], the median enrichment was found to be 2.96.
The same measure for CHRGKRRKSC [CLDN1]: 0.437; for KRRIYVLFKQEKVTLPMLSPLHNI [CDH10]: 4.44; for YYYYYYYY [Tyr08]: 5.87.
